Laboratory results from article PMC10764798, “A natural biogenic nanozyme for scavenging superoxide radicals” (Nature Communications, 2024).

B1: Non-heme ferritin from Enterobacteriaceae (E. coli FTn) (natural protein, UniProt P0A998 1-165, looked up)
chain: MLKPEMIEKLNEQMNLELYSSLLYQQMSAWCSYHTFEGAAAFLRRHAQEEMTHMQRLFDYLTDTGNLPRINTVESPFAEYSSLDELFQETYKHEQLITQKINELAHAAMTNQDYPTFNFLQWYVSEQHEEEKLFKSIIDKLSLAGKSGEGLYFIDKELSTLDTQN
notes: Carries an inorganic iron core; also called EcFTn; source: E. coli BL21(DE3), pet22b, ferrous salt added to the medium (biomineralized), purified; copies: 24
B2: DNA protection protein from Sulfolobus solfataricus (natural protein, UniProt P95855 1-188, looked up)
chain: MQEKPQEPKVVGVEILEKSGLDIKKLVDKLVKATAAEFTTYYYYTILRMHLTGMEGEGLKEIAEDARLEDRLHFELMTQRIYELGGGLPRDIRQLADISACSDAYLPENWKDPKEILKVLLEAEQCAIRTWKEVCDMTYGKDPRTYDLAQRILQEEIEHEAWFLELLYGRPSGHFRRSSPGNAPYSKK
notes: Carries an inorganic iron core; also called ssDps; S. solfataricus Dps; source: E. coli BL21(DE3), pet22b, ferrous salt added to the medium (biomineralized), purified; copies: 12
B3: Bacterioferritin from Escherichia coli str. K-12 substr. MG1655 (natural protein)
chain: not shown
notes: Carries an inorganic iron core; also called EcBfr; Bfr; source: E. coli BL21(DE3), pet22b, ferrous salt added to the medium (biomineralized), purified; copies: 24

Molecular target: the molecule itself
Test: negative-stain TEM and DLS; purified biomineralized ferritin, 0.1 mg/mL; stained with 1% uranyl acetate, JEM-1400 80 kV TEM; DLS at 25 °C; assembly of the subunits into the protein cage

Binding result, binds:
B1, B2, B3
